Substitutions are numbered along the chain they refer to. In names and notes the source's numbering stands.
B1: RNF126_NZF (RNF126 N-terminal zinc finger domain, residues 1-40) (domain or fragment, human, UniProt Q9BV68 1-40, looked up)
chain: MAEASPHPGRYFCHCCSVEIVPRLPDYICPRCESGFIEEL
notes: RNF126, human, residues 1-40 (N-terminal zinc finger); 15N- or 15N,13C-labelled where it was the observed protein in NMR; Cultures were supplemented with 10 uM ZnCl2; also called RNF126 1-40; not shown: thioredoxin A, N-terminal, cleaved; His6, N-terminal, cleaved
B2: RNF126_NZF H14A mutant (domain or fragment, human, UniProt Q9BV68 1-40, looked up)
chain: B1 chain with H14A
notes: RNF126, human, residues 1-40, with H14A; Made by PCR mutagenesis on pET28-GFP-RNF126 (1-40); in the native PAGE the mutants were GFP tagged; also called His14/Ala; source: E. coli BL21 (DE3), purified
B3: RNF126_NZF F36A mutant (domain or fragment, human, UniProt Q9BV68 1-40, looked up)
chain: B1 chain with F36A
notes: RNF126, human, residues 1-40, with F36A; Made by PCR mutagenesis on pET28-GFP-RNF126 (1-40); in the native PAGE the mutants were GFP tagged; also called Phe36/Ala; source: E. coli BL21 (DE3), purified
B4: BAG6_UBL (UBL domain of BAG6, residues 17-101) (domain or fragment, UniProt P46379 17-101, looked up)
chain: LEVLVKTLDSQTRTFIVGAQMNVKEFKEHIAASVSIPSEKQRLIYQGRVLQDDKKLQEYNVGGKVIHLVERAPPQTHLPSGASSG
notes: BAG6 (BCL2-associated athanogene 6), UBL domain, residues 17-101; The general purification protocol describes TEV cleavage; also called BAG6 UBL domain; source: E. coli BL21 (DE3), purified
B5: UBL4A_UBL (UBL domain of UBL4A, residues 1-74) (domain or fragment, UniProt P11441 1-74, looked up)
chain: MQLTVKALQGRECSLQVPEDELVSTLKQLVSEKLNVPVRQQRLLFKGKALADGKRLSDYSIGPNSKLNLVVKPL
notes: UBL4A (ubiquitin-like protein 4A), UBL domain, residues 1-74; source: E. coli Rosetta, purified

What was measured:
[1] = target: UBL4A_UBL (UBL domain of UBL4A, residues 1-74) (UniProt P11441); assay: NMR titration; unlabelled protein titrated into 15N-labelled protein, 1H-15N HSQC chemical shift perturbation; 25 °C; 10 mM potassium phosphate pH 6.0, 100 mM NaCl, 250 μM TCEP; for RNF126_NZF into UBL4A_UBL fitted with DynaFit to a 1:1 model
[2] = target: B4; assay: ITC; 500 μM RNF126_NZF (wild-type or mutant) injected into 50 μM BAG6_UBL in the cell; 25 °C; 10 mM potassium phosphate pH 6.0, 100 mM NaCl, 250 μM TCEP; details: both partners purified
[3] = target: T1, SGTA_NT (N-terminal SGTA, residues 1-86) (human, UniProt O43765 1-86); assay: NMR titration; unlabelled protein titrated into 15N-labelled protein, 1H-15N HSQC chemical shift perturbation; 25 °C; 10 mM potassium phosphate pH 6.0, 100 mM NaCl, 250 μM TCEP; for RNF126_NZF into UBL4A_UBL fitted with DynaFit to a 1:1 model; details: both partners purified
T1 construct: SGTA (small glutamine-rich tetratricopeptide repeat-containing protein alpha), human, residues 1-86; Only the 1-86 construct is described in the methods; not shown: thioredoxin A, N-terminal, cleaved; His6, N-terminal, cleaved

[4] = target: B1; assay: as above; details: both partners purified
[5] = target: T2, RNF126 N-terminal region (residues 1-100) (human, UniProt Q9BV68 1-100); assay: as above; details: both partners purified
T2 construct: RNF126, human, residues 1-100; also called RNF126 1-100; RNF126_NT (1-100); not shown: thioredoxin A, N-terminal, cleaved; His6, N-terminal, cleaved

T1 sequence (O43765 1-86): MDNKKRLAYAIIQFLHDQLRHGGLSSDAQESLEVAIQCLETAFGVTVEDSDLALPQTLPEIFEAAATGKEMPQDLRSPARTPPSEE

| Binder | Kd [2] [µM] | binding result [5] | further results |
| --- | --- | --- | --- |
| B1 | 0.4 ± 0.05 | – | Kd [1]: 16.6 µM; dH [2]: -4.52 ± 0.04 kcal/mol; stoichiometry N [2]: 1 |
| B2 | > 50 | – | – |
| B3 | 5 ± 0.3 | – | – |
| B4 | – | binds | binding result [3]: binds; stoichiometry N [4]: ~1 molar ratio |
| B5 | – | binds | – |

From paper PMC4872217, “Structural and functional insights into the E3 ligase, RNF126” (Scientific Reports, 2016)
